Data taken from patent US20230212239A1, “INHIBITORS OF CBL AUTOINHIBITION AND RELATED METHODS” (THE HOSPITAL FOR SICK CHILDREN, priority 2020, published 2023).
Entries after “also recorded” stand apart in the source; their conditions may differ.

Experiments:
Format in all cases: biochemical
[1] = molecular target: T1, CBL TKBD-LHR-RING (2-436), unphosphorylated (Homo sapiens, UniProt P22681); test: In vitro ubiquitination assay, anti-ubiquitin immunoblot; conditions: added to unphosphorylated CBL; 20 pmol CBL, 60 pmol SLAP2/pSLAP2
T1 construct: GST (N, cleaved yes); made in house; host or cells: E. coli BL-21
T1 sequence (P22681 2-436): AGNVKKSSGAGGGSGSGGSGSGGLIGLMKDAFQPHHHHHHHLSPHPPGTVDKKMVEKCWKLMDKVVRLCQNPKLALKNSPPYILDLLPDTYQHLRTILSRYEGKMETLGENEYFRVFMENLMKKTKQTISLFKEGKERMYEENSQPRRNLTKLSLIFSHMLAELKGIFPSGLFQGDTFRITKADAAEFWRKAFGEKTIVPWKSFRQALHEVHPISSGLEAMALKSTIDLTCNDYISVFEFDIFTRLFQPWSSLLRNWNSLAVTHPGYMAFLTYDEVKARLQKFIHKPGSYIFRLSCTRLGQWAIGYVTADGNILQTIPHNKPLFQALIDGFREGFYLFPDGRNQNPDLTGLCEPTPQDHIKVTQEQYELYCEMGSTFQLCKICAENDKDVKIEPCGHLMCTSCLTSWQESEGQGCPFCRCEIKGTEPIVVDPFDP
Source text: (§1) Given that binding of SLAP2 and the LHR-RING would be mutually exclusive (FIG. 8C), we reasoned that binding of SLAP2 to CBL could displace the LHR-RING, thereby promoting the catalytically competent conformation. To test this hypothesis, an in vitro ubiquitination assay in which E3 ligase activity is detected by a smear at high molecular weight on an anti-ubiquitin (Ub) immunoblot was employed. […] To further compare and quantify CBL ubiquitin ligase activity, a chemiluminescence based assay which measures the total amount of polyubiquitylated products formed in an in vitro reaction was used. In this assay, production of polyubiquitylated proteins increased upon addition of SLAP2 or pSLAP2 to CBL, compared to CBL alone (FIG. 9C and FIG. 10A).
In vitro ubiquitination reactions were prepared with 20 pmol of CBL or pCBL and 60 pmol of hSLAP2 or phosphorylated hSLAP2 (pSLAP2) for both WT and mutants. Reagents were thawed and reactions prepared on ice. CBL and SLAP2 were mixed in PBS (with 5 mM βME, 5 mM caproic acid, 0.5 mM PMSF, and 0.5 mM Na3VO4) at rt for 5-10 min before addition of master mix (42 pmol E1 (UBE1, Boston Biochem or Ubiquitin-Proteasome Biotechnologies), 0.1 µmol E2 (UbcH5b/UBE2D2, Boston Biochem #E2-622), […], and 11.6 µmol ubiquitin (Boston Biochem #U-100H) in reaction buffer (0.2 M Tris pH 7.5, 10 mM MgCl2, 2 mM DTT). Reactions were incubated at 30° C. shaking at 500-700 rpm for 60-110 minutes and terminated by addition of SDS 2X loading buffer and boiling for 5-10 minutes. Equal volumes of each reaction were loaded on 12.5% SDS-PAGE gel, transferred to PVDF membrane, and immunoblotted for ubiquitin as per standard protocols (anti-ubiquitin antibody P4G7, BioLegend #838701, 1:1000; anti-mouse IgG HRP-linked antibody, Cell Signaling Technology #7076, 1:10000; Western Lightning Plus ECL, Perkin Elmer).

[2] = molecular target: T2, phosphorylated CBL (pCBL) (Homo sapiens, UniProt P22681); test: In vitro ubiquitination assay, anti-ubiquitin immunoblot, phosphorylated CBL; conditions: added to phosphorylated CBL
T2 construct: GST (N, cleaved yes); made in house
T2 sequence (P22681 2-436): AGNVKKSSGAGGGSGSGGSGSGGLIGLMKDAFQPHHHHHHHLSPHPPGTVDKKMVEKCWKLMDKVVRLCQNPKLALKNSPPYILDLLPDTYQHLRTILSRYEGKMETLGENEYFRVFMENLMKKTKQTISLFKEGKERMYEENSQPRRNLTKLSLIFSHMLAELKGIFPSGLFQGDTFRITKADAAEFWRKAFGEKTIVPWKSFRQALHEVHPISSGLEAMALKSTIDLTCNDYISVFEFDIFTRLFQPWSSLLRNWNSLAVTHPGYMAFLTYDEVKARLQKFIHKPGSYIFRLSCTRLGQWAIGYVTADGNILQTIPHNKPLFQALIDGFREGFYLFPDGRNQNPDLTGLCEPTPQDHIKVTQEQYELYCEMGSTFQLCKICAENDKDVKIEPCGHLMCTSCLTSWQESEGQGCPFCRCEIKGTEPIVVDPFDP
Source text: as §1
In vitro ubiquitination reactions were prepared with 20 pmol of CBL or pCBL and 60 pmol of hSLAP2 or phosphorylated hSLAP2 (pSLAP2) for both WT and mutants. Reagents were thawed and reactions prepared on ice. […]

[3] = molecular target: T3, CBL TKBD-LHR-RING (Homo sapiens, UniProt P22681); test: Chemiluminescence based E3LITE assay of total polyubiquitylated products; conditions: added to CBL, compared to CBL alone
T3 construct: GST (N, cleaved yes); made in house; host or cells: E. coli BL-21
T3 sequence (P22681 2-436): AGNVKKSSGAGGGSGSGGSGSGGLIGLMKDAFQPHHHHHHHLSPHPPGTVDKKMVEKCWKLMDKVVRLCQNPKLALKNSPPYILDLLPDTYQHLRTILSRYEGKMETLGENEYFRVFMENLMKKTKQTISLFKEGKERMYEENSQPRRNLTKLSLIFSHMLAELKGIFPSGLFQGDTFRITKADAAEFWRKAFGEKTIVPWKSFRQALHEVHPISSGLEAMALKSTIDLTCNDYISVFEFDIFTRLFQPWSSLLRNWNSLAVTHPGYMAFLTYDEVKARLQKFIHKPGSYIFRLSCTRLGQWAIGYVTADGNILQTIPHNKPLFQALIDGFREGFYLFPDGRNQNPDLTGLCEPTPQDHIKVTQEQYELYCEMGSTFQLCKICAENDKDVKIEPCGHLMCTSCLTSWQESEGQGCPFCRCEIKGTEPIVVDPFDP
Source text: as §1
Ubiquitination reactions were set up as above (25 µL total volume) in triplicate and diluted with reaction buffer after completion (1:40 for pCBL, 1:15 for all other reactions). […] Wells were washed four times with PBS-T and 25 µL of prepared Immobilon Western Chemiluminescent HRP Substrate (Millipore #P90719) added to each well immediately prior to the plate being read on a Synergy Neo2 Plate Reader (BioTek Instruments). […] Standard deviation of the reaction averages was calculated and used as a measure of error. Each reaction set was analyzed at least twice with fresh protein purifications.

| Molecule | CBL ubiquitination activity (anti-Ub immunoblot) [1] | ubiquitination activity of active pCBL [2] | production of polyubiquitylated proteins / CBL ligase activity [3] |
| --- | --- | --- | --- |
| Trx-His(6)-Δlinker-hSLAP2 (human SLAP2 29-261) (other, also called Trx-His-SLAP2; SLAP2 WT; not shown: N-terminal thioredoxin (Trx)-His(6)-TEV-site tag and linker of the modified pET32a (Δlinker version)) EAERSKATAVALGSFPAGGPAELSLRLGEPLTIVSEDGDWWTVLSEVSGREYNIPSVHVAKVSHGWLYEGLSREKAEELLLLPGNPGGAFLIRESQTRRGSYSLSVRLSRPASWDRIRHYRIHCLDNGWLYISPRLTFPSLQALVDHYSELADDICCLLKEPCVLQRAGPLPGKDIPLPVTVQRTPLNWKELDSSLLFSEAATGEESLLSEGLRESLSFYISLNDEAVSLDDA | stimulated CBL ubiquitination activity | Neither addition of SLAP2 nor pSLAP2 to active pCBL appeared to further enhance or diminish ubiquitination activity | increased |
| pSLAP2: tyrosine phosphorylated SLAP2 expressed in TKB1 cells (protein, UniProt Q9H6Q3 2-261, looked up, tyrosine phosphorylated, tyrosine phosphorylated SLAP2 expressed in TKB1 cells) Src-like-adapter 2: GSLPSRRKSLPSPSLSSSVQGQGPVTMEAERSKATAVALGSFPAGGPAELSLRLGEPLTIVSEDGDWWTVLSEVSGREYNIPSVHVAKVSHGWLYEGLSREKAEELLLLPGNPGGAFLIRESQTRRGSYSLSVRLSRPASWDRIRHYRIHCLDNGWLYISPRLTFPSLQALVDHYSELADDICCLLKEPCVLQRAGPLPGKDIPLPVTVQRTPLNWKELDSSLLFSEAATGEESLLSEGLRESLSFYISLNDEAVSLDDA | stimulated CBL ubiquitination activity; also recorded: promote CBL ubiquitination activity to a greater extent than the addition of SLAP2 | Neither addition of SLAP2 nor pSLAP2 to active pCBL appeared to further enhance or diminish ubiquitination activity | increased; also recorded: stimulated CBL ligase activity to a greater extent than SLAP2 |
